In patent publication US20150133367A1 (University of Pennsylvania, published 2015) one finds Ki data, which are given here for 32 molecules.

Where two headings read alike, the source gives them in different places. Positions of bridges follow the written chain, without caps; N, C: chain ends. Non-standard residues stand in square brackets, D forms with d. No end group written: not given here. alpha,alpha'‑meta‑xylylene = alpha,alpha'-meta-xylylene linker (from a,a'-dibromo-meta-xylene) bridging two cysteines via bis-thioether; βAla = NCCC(=O)O Some results are limits rather than exact numbers.

Holding throughout (assay): fluorescence-based enzyme inhibition assay
The target of assay [1] is T1, Cathepsin S (UniProt P25774 115-331).
Assay [2] concerns the target T2, Cathepsin L (UniProt P07711 114-333).
For assay [3], the target named is T3, Calpain-1.
T3 chain 1: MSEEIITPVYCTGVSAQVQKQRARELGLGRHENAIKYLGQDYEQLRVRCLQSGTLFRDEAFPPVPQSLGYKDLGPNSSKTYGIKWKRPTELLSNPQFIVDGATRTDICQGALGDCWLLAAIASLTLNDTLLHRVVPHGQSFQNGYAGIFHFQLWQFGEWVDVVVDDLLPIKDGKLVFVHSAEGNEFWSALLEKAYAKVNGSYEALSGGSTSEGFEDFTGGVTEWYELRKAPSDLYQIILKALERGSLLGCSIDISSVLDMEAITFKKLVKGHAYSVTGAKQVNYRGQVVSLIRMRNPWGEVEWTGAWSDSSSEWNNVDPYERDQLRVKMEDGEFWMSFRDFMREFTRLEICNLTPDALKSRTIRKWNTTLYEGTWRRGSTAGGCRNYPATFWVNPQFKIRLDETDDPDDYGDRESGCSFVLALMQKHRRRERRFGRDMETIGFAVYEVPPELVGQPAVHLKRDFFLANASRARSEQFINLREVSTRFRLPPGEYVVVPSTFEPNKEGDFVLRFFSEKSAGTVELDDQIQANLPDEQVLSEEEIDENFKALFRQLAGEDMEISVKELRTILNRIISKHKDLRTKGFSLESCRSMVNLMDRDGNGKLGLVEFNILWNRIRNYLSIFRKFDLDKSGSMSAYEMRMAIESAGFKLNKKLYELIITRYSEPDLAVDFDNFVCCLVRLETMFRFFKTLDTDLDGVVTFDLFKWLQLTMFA
T3 chain 2: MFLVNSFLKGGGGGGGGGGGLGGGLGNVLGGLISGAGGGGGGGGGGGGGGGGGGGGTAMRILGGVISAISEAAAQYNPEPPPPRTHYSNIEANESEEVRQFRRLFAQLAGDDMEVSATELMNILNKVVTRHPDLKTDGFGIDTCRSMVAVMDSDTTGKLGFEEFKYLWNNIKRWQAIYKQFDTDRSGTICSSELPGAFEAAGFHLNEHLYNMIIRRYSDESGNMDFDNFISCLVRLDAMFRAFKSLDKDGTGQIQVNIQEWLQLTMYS

Assay [4] concerns the target T4, Cathepsin K (UniProt P43235 115-329).
T4 sequence (looked up): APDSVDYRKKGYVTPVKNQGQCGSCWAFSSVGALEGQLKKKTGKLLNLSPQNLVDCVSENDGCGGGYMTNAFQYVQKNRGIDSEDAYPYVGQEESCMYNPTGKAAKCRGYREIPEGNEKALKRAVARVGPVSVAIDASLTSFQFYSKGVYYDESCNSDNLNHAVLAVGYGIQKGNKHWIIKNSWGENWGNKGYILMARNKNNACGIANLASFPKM

The target of assay [5] is T3, Calpain-1.
The target of assay [6] is T2, Cathepsin L. The source holds these as a separate data set.
The target of assay [7] is T1, Cathepsin S. The source holds these as a separate data set.
The target of assay [8] is T4, Cathepsin K. The source holds these as a separate data set.

T1 sequence (P25774 115-331 limits assumed): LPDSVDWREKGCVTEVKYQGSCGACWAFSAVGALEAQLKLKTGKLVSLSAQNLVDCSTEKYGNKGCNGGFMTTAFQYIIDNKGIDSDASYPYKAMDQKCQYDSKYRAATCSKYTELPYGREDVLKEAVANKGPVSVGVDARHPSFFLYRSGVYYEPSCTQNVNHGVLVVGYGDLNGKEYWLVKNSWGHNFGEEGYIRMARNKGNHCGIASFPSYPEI
T2 sequence (P07711 114-333 limits assumed): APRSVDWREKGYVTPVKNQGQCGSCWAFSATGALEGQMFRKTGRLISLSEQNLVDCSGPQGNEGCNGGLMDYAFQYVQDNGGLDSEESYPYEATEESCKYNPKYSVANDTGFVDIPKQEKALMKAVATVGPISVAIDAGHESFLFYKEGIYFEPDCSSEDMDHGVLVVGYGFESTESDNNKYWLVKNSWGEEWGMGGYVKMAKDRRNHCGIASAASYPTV

As to FFEFFCSLMCS (linker 6-10 via alpha,alpha'‑meta‑xylylene) [FFEFFCSLMCS (SEQ ID NO:27)], in assay [1], the affinity corresponds to a Ki of 13.1 µM.

In the case of TSEEVCSLMCS (linker 6-10 via alpha,alpha'‑meta‑xylylene) [TSEEVCSLMCS (SEQ ID NO:16)], the Ki (as a rule, the equilibrium dissociation constant of an inhibitor or competing ligand from its target) in assay [2] was 16.7 µM; in assay [1], 52.1 µM.

TSEEWCSLMCS (linker 6-10 via alpha,alpha'‑meta‑xylylene, single mutant) [TSEEWCSLMCS (SEQ ID NO:21)]: the Ki in assay [2] stood at 105 µM; in assay [1] it was 80.4 µM.

For TWEWVCSLMCS (linker 6-10 via alpha,alpha'‑meta‑xylylene, double mutant) [TWEWVCSLMCS (SEQ ID NO:23)], the Ki in assay [3] amounted to 88.4 µM; in assay [2] it was 33.8 µM; in assay [1] it was 14.3 µM; in assay [4], 65.7 µM.

Regarding TWEEVCSLMCS (linker 6-10 via alpha,alpha'‑meta‑xylylene, single mutant) [TWEEVCSLMCS (SEQ ID NO:18)], the Ki in assay [2] was 93.9 µM; in assay [1], 29.7 µM; in assay [4], 67.5 µM.

With WSEEVCSLMCS (linker 6-10 via alpha,alpha'‑meta‑xylylene, single mutant) [WSEEVCSLMCS (SEQ ID NO:17)], the Ki in assay [3] is 108 µM; in assay [2] it was 76 µM; in assay [1], 51 µM.

Take TSEWVCSLMCS (linker 6-10 via alpha,alpha'‑meta‑xylylene, single mutant) [TSEWVCSLMCS (SEQ ID NO:20)]: the values for the Ki in assay [2] and in assay [1] were 57.1 µM and 33.1 µM, respectively.

IPPKYCELLC (linker 6-10 via alpha,alpha'‑meta‑xylylene) [IPPKYCELLC (SEQ ID NO:65)]: the Ki in assay [5] came out at 10.2 µM; in assay [6], 39.9 µM; in assay [7], 50.2 µM.

Turning to IPPRYCELLC (linker 6-10 via alpha,alpha'‑meta‑xylylene) [IPPRYCELLC (SEQ ID NO:80)], the Ki in assay [5] is 5.3 µM; in assay [6], 37.9 µM; in assay [7], 35.9 µM.

For the molecule IPPKYCEQLC (linker 6-10 via alpha,alpha'‑meta‑xylylene, also called compound (Ia)) [IPPKYCEQLC (SEQ ID NO:85)], the Ki in assay [5] came out at 11 µM; in assay [6], 66.2 µM; in assay [7], 21.4 µM.

Consider IPPKACELLC (linker 6-10 via alpha,alpha'‑meta‑xylylene) [IPPKACELLC (SEQ ID NO:81)], for which the results for the Ki in assay [6] and in assay [7] were 8.12 µM and 16.8 µM, respectively.

Turning to APPKYCELLC (linker 6-10 via alpha,alpha'‑meta‑xylylene) [APPKYCELLC (SEQ ID NO:72)], the Ki stood at 65.6 µM in assay [5], 12.5 µM in assay [6] and 26.1 µM in assay [7].

On to LPPKYCELLC (linker 6-10 via alpha,alpha'‑meta‑xylylene) [LPPKYCELLC (SEQ ID NO:74)], for which the Ki in assay [5] is 11 µM; in assay [6], 38.1 µM; in assay [7] it was 46.3 µM.

In turn, IPPRWCELLC (linker 6-10 via alpha,alpha'‑meta‑xylylene) [IPPRWCELLC (SEQ ID NO:91)] gave a Ki in assay [6] of 8.8 µM.

Turning to IPPKYCALLC (linker 6-10 via alpha,alpha'‑meta‑xylylene) [IPPKYCALLC (SEQ ID NO:84)], the results for the Ki in assay [5], in assay [6] and in assay [7] were 28.9 µM, 12.5 µM and 15.6 µM, respectively.

For the molecule IPPKYCEALC (linker 6-10 via alpha,alpha'‑meta‑xylylene) [IPPKYCEALC (SEQ ID NO:86)], the results for the Ki in assay [5], in assay [6] and in assay [7] were 30.9 µM, 21.4 µM and 13.9 µM, respectively.

With IPPAYCELLC (linker 6-10 via alpha,alpha'‑meta‑xylylene) [IPPAYCELLC (SEQ ID NO:78)], the Ki was 17.7 µM in assay [5], 24.6 µM in assay [6] and 20.7 µM in assay [7].

As to IPPKYRCLLAC (linker 7-11 via alpha,alpha'‑meta‑xylylene) [IPPKYRCLLAC (SEQ ID NO:66)], the figures for the Ki in assay [5] and in assay [6] were 7.5 µM and 5.1 µM, respectively.

IPPKYCELFC (linker 6-10 via alpha,alpha'‑meta‑xylylene) [IPPKYCELFC (SEQ ID NO:88)] came in with a Ki in assay [5] of 27.9 µM.

In turn, PPPKYCELLC (linker 6-10 via alpha,alpha'‑meta‑xylylene) [PPPKYCELLC (SEQ ID NO:73)] had a Ki in assay [5] of 45.3 µM.

On to [βAla]AIPPKYCELLC (linker 8-12 via alpha,alpha'‑meta‑xylylene) [(b-Ala)AIPPKYCELLC (SEQ ID NO:70)], for which the affinity in assay [5], expressed as Ki, was 10.7 µM.

In turn, SCESVCKPWGPKVP (linker 2-6 via alpha,alpha'‑meta‑xylylene, 14-mer) [SCESVCKPWGPKVP (SEQ ID NO:55)] had a Ki in assay [8] of 16.2 µM.

DPPKYCELLC (linker 6-10 via alpha,alpha'‑meta‑xylylene) [DPPKYCELLC (SEQ ID NO:71)] gave a Ki in assay [5] of 27.6 µM.

As to EVTIPPKYCELLC (linker 9-13 via alpha,alpha'‑meta‑xylylene) [EVTIPPKYCELLC (SEQ ID NO:69)], the values for the Ki in assay [5], in assay [6] and in assay [7] were 5.3 µM, 69.6 µM and 31.3 µM, respectively.

Regarding QPPKYCELLC (linker 6-10 via alpha,alpha'‑meta‑xylylene) [QPPKYCELLC (SEQ ID NO:76)], the Ki in assay [5] was found to be 35 µM.

IPPCYRECLA (linker 4-8 via alpha,alpha'‑meta‑xylylene) [IPPCYRECLA (SEQ ID NO:64)] showed a Ki in assay [5] of 95.6 µM. This Ki lies about 2.7-fold higher than the previous one.

For LGKREVTIPPKYCELLC (linker 13-17 via alpha,alpha'‑meta‑xylylene, 17 amino acids) [LGKREVTIPPKYCELLC (SEQ ID NO:67)], the values for the Ki in assay [5] and in assay [7] were 3.6 µM and 31.5 µM, respectively.

Take LFKREVTIPPKYCELLC (linker 13-17 via alpha,alpha'‑meta‑xylylene, 17 amino acids) [LFKREVTIPPKYCELLC (SEQ ID NO:68)]: the Ki in assay [5] was found to be 1.3 µM; in assay [6] it was 10.7 µM; in assay [7], 41.5 µM.

Molecule SCEVVCKMTGLKVPL (linker 2-6 via alpha,alpha'‑meta‑xylylene, 15-mer) [SCEVVCKMTGLKVPL (SEQ ID NO:56)] gave a Ki in assay [8] of 22.7 µM.

B1: I(pf5)PKYCELLC (SEQ ID NO:77) (peptide)
peptide: IXPKYCELLC
modifications: Cys6 and Cys10 (i,i+4) linked by alpha,alpha'-meta-xylylene; residue 2 pf5 = pentafluorophenylalanine
In turn, B1 showed a Ki in assay [5] of 5.09 µM.

B2: SCESVCKPWGP (SEQ ID NO:50) (peptide)
peptide: SCESVCKPWGP
modifications: linker 2-6 via alpha,alpha'‑meta‑xylylene
notes: also called compound (IIa); quadruple mutant
Turning to B2, the Ki in assay [8] came to 17.2 µM. That is a double-digit micromolar value.

Take SCEEVCKPGGP (linker 2-6 via alpha,alpha'‑meta‑xylylene) [SCEEVCKPGGP (SEQ ID NO:47)]: the Ki in assay [8] is over 100 µM.
